Laboratory results: paper PMC3169596, “G4-DNA Formation in the HRAS Promoter and Rational Design of Decoy Oligonucleotides for Cancer Therapy”

Target: T1, MAZ-GST (UniProt P56270 1-477)
T1 sequence: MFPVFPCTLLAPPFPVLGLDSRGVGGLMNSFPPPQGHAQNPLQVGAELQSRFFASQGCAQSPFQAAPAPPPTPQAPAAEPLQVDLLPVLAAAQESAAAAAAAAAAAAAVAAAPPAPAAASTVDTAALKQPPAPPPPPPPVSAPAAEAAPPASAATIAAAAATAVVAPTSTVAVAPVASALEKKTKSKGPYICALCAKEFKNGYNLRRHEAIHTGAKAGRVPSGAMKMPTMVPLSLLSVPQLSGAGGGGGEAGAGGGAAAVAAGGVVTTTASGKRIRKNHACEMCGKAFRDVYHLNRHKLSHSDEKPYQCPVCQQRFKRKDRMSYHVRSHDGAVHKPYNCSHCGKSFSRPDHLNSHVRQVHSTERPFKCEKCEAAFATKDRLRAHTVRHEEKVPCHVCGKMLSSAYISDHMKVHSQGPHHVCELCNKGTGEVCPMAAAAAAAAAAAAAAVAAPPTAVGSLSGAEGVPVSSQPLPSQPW
Experiment: EMSA; 50 mM KCl, pH 7.4, poly d(I-C); apparent Kd given for the HRAS quadruplexes together; EMSA: 20 mM Tris-HCl pH 8, 30 mM KCl, 1.5 mM MgCl2, 1 mM DTT, 8% glycerol, 5 mM NaF, 1 mM Na3VO4, 2.5 ng/ml poly[dI-dC], 30 min room temperature (Figure 6c: pH)
Conditions: protein: recombinant; tags: GST; label: 33P; antiparallel intramolecular G4 in K+

TCGGGTTGCGGGCGCAGGGCACGGGCG (structured_DNA) [qhras-1 (quadruplex hras-1, H1)]
Kd: ~1.5 µM
